Experimental data from the nanobody polyreactivity screen of Harvey et al. (2022).

Experiment: yeast display, Sf9 membrane polyspecificity reagent, FACS + sequencing; frameworks hold sequencing errors
Summary of the method: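 In a synthetic yeast display library (Saccharomyces cerevisiae BJ5465), nanobody expression was induced with galactose for 36–48 hours. FACS gates were set low and high (top ~1%) using anti-HA fluorescence for expression and streptavidin fluorescence for binding of the Sf9 membrane reagent. Each polyreactivity label is drawn from the gate of origin.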

Sequence	polyreactivity (PSR sort gate)
QVQLVESGGGLVQAGGSLRLSCAASGRIFPWYTMGWYRQAPGKERELVATIRGSGGSTHYADSVKGRFTISRDNAKNTVYLQMNSLKPEDTAVYYCATDRPRYRYQYKFDYWGQGTQVTVSS	low polyreactivity
QVQLVESGGGLVQAGGSLRLSCAASGRIFPYNAMGWSRQAPGQERELVARIDSGGRTNYADSVKGRFTISRDNAKNTVYLQMNSLKPEDTAVYYCARVFSLARSWYRYYYWGQGTQVTVSS	high polyreactivity
QVQLVESGGGLVQAGGSLRLSCAASGRIFPYNAMGWYRQAPGKEREFVASIRTRGVSTYYADSVKGRFTISRDNAKNTVYLQMNSLKPEDTAVYYCNAQRPGYAKGPRYDYWGQGTQVTVSS	high polyreactivity
QVQLVESGGGLVQAGGSLRLSCAASGRIFPYNVMGWYRPATGKERELVAAISWSGGRTYYADSVKGRFTISRDNAKNTVYLQMISLKPEDTAVYYCNTRTLVAMGYWGQGTQVTVSS	high polyreactivity
QVQLVESGGGLVQAGGSLRLSCAASGRIFPYYAMGWSRQAPGKERELVAAISLSGGSTYYADSVKGRFTISRDNAKNTVYLQMNSLKPEDTAVYYCNAVASTYGYYWYPGLGYDYWGQGTQVTVSS	low polyreactivity
QVQLVESGGGLVQAGGSLRLSCAASGRIFPYYAMGWYRQAPGKERELVAAISRIGGRTYYADSVKGRFTISRDNAKNTVSLQMNSLKPEDTAVYYCAAGYGGTFNCGQGTQVTVSS	high polyreactivity
QVQLVESGGGLVQAGGSLRLSCAASGRIFPYYAMGWYRQAPGKERELVAAITARGGRTYYADSVKGRFSISRDNAKNTVYLQMNSLKPEETAVYYCNTGGRSGSPGYDYWGQGTQVTVSS	high polyreactivity
QVQLVESGGGLVQAGGSLRLSCAASGRIFPYYAMGWYRQAPGKERELVASTNYADSVKGRFTISRDNAKNTVYLQMNSLKPEDTAVYYCAADGYRYSVYLIRNPMDYWGQGTQVTVSS	low polyreactivity
QVQLVESGGGLVQAGGSLRLSCAASGRIFPYYAMGWYRQAPGKERELVATITWRGGITYYADSVKGRFTISRDNAKNTVYLQMNSLKPEDTAVYYCAVRKVYRSSFDYWGQGTQVTVSS	high polyreactivity
QVQLVESGGGLVQAGGSLRLSCAASGRIFPYYAMGWYRQEPGKEREFVAAISSSGDSTYYADSVKGRFTISRDNAKNTVYLQMNSLKPEDTPVYYCATRYRSSQWYSPYKYDYWGQGTQVTLSS	low polyreactivity
QVQLVESGGGLVQAGGSLRLSCAASGRIFPYYDMGWYRQAPGKEMELVATITWRGGITYYADSVKGRFTISRDNAKNTVYLQMNSLKPEDTAVYYCAVRKVYRSSFDYWGQGTQVTVSS	high polyreactivity
QVQLVESGGGLVQAGGSLRLSCAASGRIFPYYTMGWYRQAPGKERELVAAITSGGITYYADSVKGRFTISRDNAKNTVYLQMKSLKPEDTAVYSCAALHSGKYTRYKYGYWGQGTQVTVSS	high polyreactivity
QVQLVESGGGLVQAGGSLRLSCAASGRIFQANAMGWYRQAPGKERELVAAISWSGGSTYYADSVKGRFTISRDNAKNTVYLQMNSLKPEDTAVYYCAKDYVHQYGVYKVWANNYNYWGQGTQVTVSS	low polyreactivity
QVQLVESGGGLVQAGGSLRLSCAASGRIFQDNAMGWSRQAPGNERELVAAISKSGGITYYADSVKGRFTISRDNAKNTVYLQMNSLKPEDTAVYNCAAVWSRFLISYSTGWWFEYWGQGTQVTVSS	low polyreactivity
QVQLVESGGGLVQAGGSLRLSCAASGRIFQEYAMGWYRQAPGKERELVAAISSGGGSTYYADSVKGRFTISRDNAKNTVYLQMNSLKPEDTAVYYCAARVYIAYISMDHWGQGTQVTVSS	low polyreactivity
QVQLVESGGGLVQAGGSLRLSCAASGRIFQGYAMVWYRQAPGKERELVARITSGSNTNYADSVKGRFTISRDNAKNTVYLQMNSLKPEDTAVYYCAKEPVGSVRYGRFQQDDYWGQGTQVTVSS	low polyreactivity
QVQLVESGGGLVQAGGSLRLSCAASGRIFQGYVMGWYRQAPGKERELVAVISRRGGITNYADSVKGRFTISRDNAKNTVYLQMISLKPEDTAVYYCNDVTRVYNNGQYGYWGQGTQVTVSS	high polyreactivity
QVQLVESGGGLVQAGGSLRLSCAASGRIFQIYAMGWYRQAPGKERELVAAIRSGSNTNYADSVKGRFTISRDNAKNTVYLQMNSLKPEDTAVYYCAADGWYSAVGVWLEYDYWGQGTQVTVSS	low polyreactivity
QVQLVESGGGLVQAGGSLRLSCAASGRIFQIYAMGWYRQAPGKERELVAAIRSGSNTNYADSVKGRFTISRDNAMNTVYLQMNSLKPEDTAVYYCNALYTSLRKYNYWGQGTQVTVSS	low polyreactivity
QVQLVESGGGLVQAGGSLRLSCAASGRIFQIYAMGWYRQAPGKERELVAAISNRGGSTYYADSVKVRFTISRDNAKNTVYLQMNSLKPEDTAVYYFNATTGYGGYNYWGQGTKVTVSS	low polyreactivity

Sequence	polyreactivity (PSR sort gate)
QVQLVESGGGLVQAGGSLRLSCAASGRIFQKYAMGWYRQAPGKERELGAAISSGDSTYADSVKGRFTISRDNAKNTVYLQMNSLKPEDTAVYYCAVDLYDPWWYSYIGEYEYWGQGTQVTVSS	low polyreactivity
QVQLVESGGGLVQAGGSLRLSCAASGRIFQNYALGWYRQAPGKERELVATISSGVSTYYADSVKGRFTISRDNAKNTVYLQMNSLKPEDTAVYYCAAYVPWFEMDYWGQGTQVTVSS	low polyreactivity
QVQLVESGGGLVQAGGSLRLSCAASGRIFQPNVMGWYRPAPGKERELVAAIRSGSSTYYADSVKGRFTISRDNAKYTVYLQMNCLKPEDTAVYFCATRYRKQYKPYEYWGQGTQVTVSS	high polyreactivity
QVQLVESGGGLVQAGGSLRLSCAASGRIFQRNAMGWYRQAPGKERELVAAITSTGVRTYYADSVKGRFTISRDNAKNTVFLQMNSLNPEDTAVYYCAVRGERRYYGSKEDYWGQGTQVTVSS	high polyreactivity
QVQLVESGGGLVQAGGSLRLSCAASGRIFQRYAMGWSRQAPGKERELVAPISWSVSSTYYADSVKGRFTISRDNAKNTVYLQMNSLKPEDTAVYYCNAAFHVTLGYLYREYDYWGQGTQVTVSS	high polyreactivity
QVQLVESGGGLVQAGGSLRLSCAASGRIFQRYAMGWYRQAPGKERELVAAISSRGGRTFYADSVKGRFTISRDNAKNTVYLQMNSLKPEDTAAYYCAATATVGSVTFDYWGQGTQVTVSS	high polyreactivity
QVQLVESGGGLVQAGGSLRLSCAASGRIFQWNTMGWYRQAPGKEREFVAAISGSGVSTYYADSVKGRFTISRDNAKNTVYLQMNSLKPEDTAVYYCATTYPAYGRRGYDYWGQGTQVNVSS	high polyreactivity
QVQLVESGGGLVQAGGSLRLSCAASGRIFQYNAMGWYRQAPGKERELVAAIRRGGGSTYYADSVKGRFTISRDNAKNTVYLQMNSLKPEDTAVYYCAADASSQIWYYPRDDYWGQGTQVTVSS	low polyreactivity
QVQLVESGGGLVQAGGSLRLSCAASGRIFQYYAMGWYRQAPGKERELVAAISGRGTSTYYADSVKGRFTISRDNAKNTVYLQMNRLKPEDTAVYYCNADINYKSYFIHTFTIIPYGYWGQGTLVTVSS	low polyreactivity
QVQLVESGGGLVQAGGSLRLSCAASGRIFQYYAMGWYRQAPGKERELVAAITSGGRTTYADSVKGRFTISRDNAKNTVYLQMNSLKPEVTAVYYCNAKTWYSYNYWGQGTQVTVSS	high polyreactivity
QVQLVESGGGLVQAGGSLRLSCAASGRIFQYYVMGWYRQAPGKERELVARITYIGGGTYYADSVKGRFTMSRDNAKNTVYLQMNSLKPEDTAVYYWYARYPWREWEDDYWGQGTQVTVSS	low polyreactivity
QVQLVESGGGLVQAGGSLRLSCAASGRIFRANAMGWYRQAPGKERELVAGITRRGGSTNYADSVKGRFTISRDNAKTTVYLQMNSLKPEDTAVYYCNRDVSLSTSIRMDYWGQGTQVTVSS	low polyreactivity
QVQLVESGGGLVQAGGSLRLSCAASGRIFRDYAMGAYRPAPGKERELGATITRSGGRTYYADSVKGRFTISRDNAKNTVYLQMNSLKPEDTAVYYCAARWRIVSGRFDYWGQGTQVTVSS	high polyreactivity
QVQLVESGGGLVQAGGSLRLSCAASGRIFRDYAMGWYRQAPGKERELVAAIRSVGNTNYADSVKGRFTISRDNAKNTVYLQMNSLKPEDTAVYYCNRQGSDFSRQAIGDFRFDYWGQGTQVTVSS	low polyreactivity
QVQLVESGGGLVQAGGSLRLSCAASGRIFRDYAMGWYRQAPGKETELVATITWSGATTYYADSVKGRFTISRDNAKNTVYLQMNSLKPEDTAVYYCNTDTDVDVAFDSWGQGTQVTVSS	low polyreactivity
QVQLVESGGGLVQAGGSLRLSCAASGRIFRDYVMGWYRQAPGKERELVAAISRGGSTYYADSVKGRFTISRDNAKNTVYLQMNSLKPEDTAVYYCAASWRSYSQLDYYWGQGTQVTVSS	high polyreactivity
QVQLVESGGGLVQAGGSLRLSCAASGRIFRFYAIGAYRQAPGKERELVAVISTGGSTNYADSVKGRFTISRDNAKNTVYLQMNSLKPEDTAVYYCAKRKQSWGPGYSYYSSQYSMDYWGQGTLVTVSS	high polyreactivity
QVQLVESGGGLVQAGGSLRLSCAASGRIFRFYAMGWYRQAPGKERELVAAISWRGGRTYYADSVKGRFTISRDNAKNTVYLQMNSLKPEDTAVYYCNADKYETSGWKYDSWGQGTQVTVSS	low polyreactivity
QVQLVESGGGLVQAGGSLRLSCAASGRIFRFYAMGWYRQAPGKERELVAAITRNVGSTFYADSVKGRFTISRDNAKNTVYLQMNSLKPEDTAVYYCAAESDYYYRYTFDYWGQGTQVTVSS	low polyreactivity
QVQLVESGGGLVQAGGSLRLSCAASGRIFRFYAMGWYRQAPGKETELVATINSGVGRTYYADSVKGRFTISRDNAKNTVYLQFNSLKPEDTAVYYCAAEKRSYPQSYYYWGQGTQVTVSS	high polyreactivity
